This is an account of results in article PMC8557471.

For the assay, the target named is A. thaliana DCL1 DSRM1 (A. thaliana). Nature of the assay: BLI.

Substance “A. thaliana HYL1 DSRM2 (domain or fragment)” displayed a fold higher affinity than HYL1 DSRM1 for the same target of 3.4 fold.
